This experiment concerns the target IGF1 receptor on embryonic chick spinal cord motoneurons (chick (endogenous in E6 spinal cord motoneurons)).

Consider Bovine pancreatic insulin (ligand), for which the neurite growth from E6 chick motoneurons in vitro, half-maximal effect was found to be 20 nM.

In the case of “Highly purified human IGF2 (insulin-like growth factor 2), unlabeled (from UniProt P01344 25-91) (ligand)”, the neurite growth from E6 chick motoneurons in vitro, half-maximal effect came to 0.2 nM.

On to “Recombinant human IGF1 (insulin-like growth factor 1), unlabeled (from UniProt P05019 22-118) (ligand)”, for which the neurite growth from E6 chick motoneurons in vitro, half-maximal response was found to be 0.2 nM.

The record behind these values is article PMC2116103.
